Key:
Fzf1-N117 = molecular target: T1, Fzf1-N117 (Saccharomyces cerevisiae, UniProt P32805 1-117); assay: EMSA; poly dI-dC, BSA; EMSA: 0.1 pmol dsDNA probe, 2 ng BSA, 0.5 ug poly dI-dC (added after incubation), EMSA binding buffer (composition, salt and pH not given), 20 min on ice, 6% native PAGE; protein 0-150 nM; conditions: protein: recombinant; tags: N-terminal GST removed by PreScission protease; blunt
T1 sequence: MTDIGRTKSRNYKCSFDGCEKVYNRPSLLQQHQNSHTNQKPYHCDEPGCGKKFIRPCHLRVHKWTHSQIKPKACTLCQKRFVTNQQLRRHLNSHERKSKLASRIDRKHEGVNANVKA

Fzf1 = molecular target: T2, Fzf1 (Saccharomyces cerevisiae, UniProt P32805 1-299); assay: as above; conditions: protein: recombinant; tags: GST fusion from pGEX-6p-1 (pGEX-FZF1); tag removal by PreScission described only for N117; blunt
T2 sequence: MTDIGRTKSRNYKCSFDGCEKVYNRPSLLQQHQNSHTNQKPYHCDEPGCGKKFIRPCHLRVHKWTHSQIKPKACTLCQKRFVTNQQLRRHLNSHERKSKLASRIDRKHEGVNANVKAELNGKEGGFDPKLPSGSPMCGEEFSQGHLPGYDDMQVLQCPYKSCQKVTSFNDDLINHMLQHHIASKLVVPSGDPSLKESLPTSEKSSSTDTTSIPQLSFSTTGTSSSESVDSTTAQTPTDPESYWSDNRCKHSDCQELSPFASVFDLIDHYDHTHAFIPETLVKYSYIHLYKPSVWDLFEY

B1: SSU1-CS2 (dsDNA)
DNA 1: GAAAAAAAAATGATAGTTTGCAGGAAG
DNA 2: CTTCCTGCAAACTATCATTTTTTTTTC
Fzf1-N117
  Kd: ~30 nM
Fzf1
  Kd: ~35 nM
